Measured values published in publication PMC3349548, “UBXN7 docks on neddylated cullin complexes using its UIM motif and causes HIF1α accumulation” (BMC Biology, 2012).

Assays:
Details in all cases: both partners purified
[1] = molecular target: T1, CUL2/RBX1, unmodified (full-length CUL2, GST cleaved off) (human | , UniProt Q13617-1 1-745; P62877 1-108); assay: co-IP; 1.5 μg CUL2/RBX1 (unmodified or neddylated in vitro) pre-incubated with 1.5 μg bacterially expressed Flag-UBXN7 for 30 minutes, then one hour with anti-Flag beads in buffer D
T1 construct: CUL2, human, full-length; RBX1, amplified from EST IMAGE 3138751; also called unmodified CUL2; non-neddylated CUL2; source: Spodoptera frugiperda 21 cells (baculovirus), purified (GSH-Sepharose, GST cleaved with PreScission protease)

[2] = molecular target: T2, CUL2/RBX1, neddylated in vitro (partially neddylated full-length CUL2) (human | , UniProt Q13617-1 1-745; P62877 1-108; Q15843 1-76, NEDD8 conjugated in vitro on only a fraction of CUL2; Lys689 is the site of NEDD8-conjugation in human CUL2); assay: as above
T2 construct: CUL2, human, full-length; RBX1, amplified from EST IMAGE 3138751; NEDD8 (BostonBiochem) conjugated to CUL2 in vitro; RBX1 substoichiometric; also called neddylated CUL2; CUL2 that was in vitro neddylated; copies: + +

[3] = molecular target: T3, ubiquitin-agarose (UniProt P0CG47 1-76); assay: pull-down; 25 μg recombinant UBXN7 variant incubated for one hour with 10 μl NEDD8- or ubiquitin-agarose in buffer D (50 mM HEPES/KOH pH 7.5, 60 mM KOAc, 5 mM MgCl2, 5% glycerol, 0.1% Triton X-100)
T3 construct: ubiquitin coupled to agarose beads; source: bought: BostonBiochem (ubiquitin-agarose)

[4] = molecular target: T4, Flag-CUL1(324-776)/GST-HA-RBX1 complex, non-neddylated (mock neddylation) (UniProt Q13616 324-776; P62877 1-108); assay: pull-down; Flag-CUL1(324-776)/GST-HA-RBX1 (about 1 μg) immobilized on GSH-sepharose, neddylated or mock-treated, incubated for one hour with 3 μg Flag-UBXN7 variant in buffer D; naked beads as control
T4 construct: RBX1; also called non-neddylated CUL1 fragment; CUL1/RBX1 complex; source: E. coli BL21, co-expressed, immobilized from lysate on GSH-sepharose

[5] = molecular target: T5, Flag-CUL1(324-776)/GST-HA-RBX1 complex, neddylated in vitro (mixture of neddylated and non-neddylated) (UniProt Q13616 324-776; P62877 1-108; Q15843 1-76, NEDD8 conjugated in vitro (mixture of neddylated and non-neddylated); site not stated); assay: as above
T5 construct: RBX1; NEDD8 (BostonBiochem) conjugated to the CUL1 fragment in vitro; also called neddylated CUL1 fragment; source: E. coli BL21, co-expressed, immobilized from lysate on GSH-sepharose, neddylated in vitro on the beads; copies: + +
T5 sequence (Q13616 324-776, chain 1 of 3): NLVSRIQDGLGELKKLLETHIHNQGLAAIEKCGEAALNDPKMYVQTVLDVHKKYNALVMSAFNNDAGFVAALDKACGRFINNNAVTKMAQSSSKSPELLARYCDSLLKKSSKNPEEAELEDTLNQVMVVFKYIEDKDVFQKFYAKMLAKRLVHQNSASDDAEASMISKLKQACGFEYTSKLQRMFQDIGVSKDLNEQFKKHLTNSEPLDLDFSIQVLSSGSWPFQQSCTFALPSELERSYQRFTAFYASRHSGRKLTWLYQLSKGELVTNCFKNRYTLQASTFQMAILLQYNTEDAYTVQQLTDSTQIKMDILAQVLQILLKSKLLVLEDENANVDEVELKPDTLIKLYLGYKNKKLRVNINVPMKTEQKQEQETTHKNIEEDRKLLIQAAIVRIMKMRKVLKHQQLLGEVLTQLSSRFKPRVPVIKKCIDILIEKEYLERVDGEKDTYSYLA
T5 sequence (P62877 whole entry, chain 2 of 3, the tested form may be a part): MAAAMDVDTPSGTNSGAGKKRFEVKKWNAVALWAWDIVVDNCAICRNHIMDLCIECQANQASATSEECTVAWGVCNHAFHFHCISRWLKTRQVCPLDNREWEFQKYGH
T5 sequence (Q15843 1-76, chain 3 of 3): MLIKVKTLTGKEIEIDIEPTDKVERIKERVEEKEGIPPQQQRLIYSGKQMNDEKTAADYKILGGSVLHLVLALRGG

T2 sequence (Q13617 whole entry, chain 1 of 3): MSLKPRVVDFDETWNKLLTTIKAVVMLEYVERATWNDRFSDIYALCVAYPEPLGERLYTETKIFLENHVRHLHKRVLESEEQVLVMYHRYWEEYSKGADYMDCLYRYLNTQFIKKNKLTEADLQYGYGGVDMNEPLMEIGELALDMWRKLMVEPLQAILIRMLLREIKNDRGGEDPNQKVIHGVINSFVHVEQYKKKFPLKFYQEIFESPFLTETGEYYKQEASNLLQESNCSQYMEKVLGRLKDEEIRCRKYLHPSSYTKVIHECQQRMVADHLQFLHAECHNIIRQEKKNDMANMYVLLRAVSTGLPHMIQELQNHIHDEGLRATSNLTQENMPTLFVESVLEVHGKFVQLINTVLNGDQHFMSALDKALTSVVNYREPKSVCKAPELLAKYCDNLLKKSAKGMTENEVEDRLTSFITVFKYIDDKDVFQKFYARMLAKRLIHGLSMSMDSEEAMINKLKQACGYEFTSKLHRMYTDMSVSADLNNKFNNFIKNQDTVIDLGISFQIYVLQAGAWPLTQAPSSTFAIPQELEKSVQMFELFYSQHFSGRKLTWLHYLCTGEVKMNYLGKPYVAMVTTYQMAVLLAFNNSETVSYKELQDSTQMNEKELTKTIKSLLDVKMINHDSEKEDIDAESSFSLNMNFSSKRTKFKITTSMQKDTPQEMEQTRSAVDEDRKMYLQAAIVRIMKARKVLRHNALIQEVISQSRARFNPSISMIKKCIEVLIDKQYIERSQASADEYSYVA
T2 sequence (P62877 whole entry, chain 2 of 3): as the sequence (P62877 whole entry, chain 2 of 3, the tested form may be a part) above
T2 sequence (Q15843 1-76, chain 3 of 3): as the sequence (Q15843 1-76, chain 3 of 3) above
T1 sequence (Q13617 whole entry, chain 1 of 2): as the sequence (Q13617 whole entry, chain 1 of 3) above
T1 sequence (P62877 whole entry, chain 2 of 2): as the sequence (P62877 whole entry, chain 2 of 3, the tested form may be a part) above
T4 sequence (Q13616 324-776, chain 1 of 2): as the sequence (Q13616 324-776, chain 1 of 3) above
T4 sequence (P62877 whole entry, chain 2 of 2, the tested form may be a part): as the sequence (P62877 whole entry, chain 2 of 3, the tested form may be a part) above

- binding result [1]: binds
- binding result [2]: binds
- binding result [3]: binds
- binding result [4]: binds
- binding result [5]: binds
B1: bacterially expressed Flag-UBXN7 (wild-type, full length) (natural protein, human, UniProt O94888 1-489, looked up)
chain: MAAHGGSAASSALKGLIQQFTTITGASESVGKHMLEACNNNLEMAVTMFLDGGGIAEEPSTSSASVSTVRPHTEEEVRAPIPQKQEILVEPEPLFGAPKRRRPARSIFDGFRDFQTETIRQEQELRNGGAIDKKLTTLADLFRPPIDLMHKGSFETAKECGQMQNKWLMINIQNVQDFACQCLNRDVWSNEAVKNIIREHFIFWQVYHDSEEGQRYIQFYKLGDFPYVSILDPRTGQKLVEWHQLDVSSFLDQVTGFLGEHGQLDGLSSSPPKKCARSESLIDASEDSQLEAAIRASLQETHFDSTQTKQDSRSDEESESELFSGSEEFISVCGSDEEEEVENLAKSRKSPHKDLGHRKEENRRPLTEPPVRTDPGTATNHQGLPAVDSEILEMPPEKADGVVEGIDVNGPKAQLMLRYPDGKREQITLPEQAKLLALVKHVQSKGYPNERFELLTNFPRRKLSHLDYDITLQEAGLCPQETVFVQERN
notes: UBXN7, human, full length, in a modified pGEX6P-1 vector; also called wild-type UBXN7; recombinant UBXN7; source: E. coli BL21 DE3, purified (GSH-sepharose, TEV cleavage, Superdex 75)
